# Experimental data: patent US5969094A, “Anti-paramyxovirus screening method and vaccine” (Emory University, priority 1996, dated 1999)
# Where two headings read alike, the source gives them in different places.
# T1: PI2F + PI2HN (Human parainfluenza 2 virus, UniProt P25467)
# T1 construct: expressed in transfected cells; host or cells: HeLa-T4 cells infected with vTF7.3
# T1 sequence (P25467 107-551 limits assumed): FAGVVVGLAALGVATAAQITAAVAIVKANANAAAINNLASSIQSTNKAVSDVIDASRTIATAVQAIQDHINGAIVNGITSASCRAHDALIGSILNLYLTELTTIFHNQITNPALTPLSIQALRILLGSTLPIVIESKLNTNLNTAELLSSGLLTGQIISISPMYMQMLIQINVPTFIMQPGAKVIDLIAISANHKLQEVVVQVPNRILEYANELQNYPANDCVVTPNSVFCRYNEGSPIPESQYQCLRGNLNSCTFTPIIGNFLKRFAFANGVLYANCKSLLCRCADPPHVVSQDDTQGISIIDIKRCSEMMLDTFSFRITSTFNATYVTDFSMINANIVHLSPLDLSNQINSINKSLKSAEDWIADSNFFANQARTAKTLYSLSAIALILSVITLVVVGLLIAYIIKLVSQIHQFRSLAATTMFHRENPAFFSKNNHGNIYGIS
# T1 sequence (P25467 24-106 partner limits assumed): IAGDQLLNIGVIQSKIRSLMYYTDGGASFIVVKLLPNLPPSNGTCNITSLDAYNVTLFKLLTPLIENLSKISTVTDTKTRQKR
# T2: SN-F, fusion glycoprotein of Sendai virus (Sendai virus (SN), UniProt P04855)
# T2 sequence: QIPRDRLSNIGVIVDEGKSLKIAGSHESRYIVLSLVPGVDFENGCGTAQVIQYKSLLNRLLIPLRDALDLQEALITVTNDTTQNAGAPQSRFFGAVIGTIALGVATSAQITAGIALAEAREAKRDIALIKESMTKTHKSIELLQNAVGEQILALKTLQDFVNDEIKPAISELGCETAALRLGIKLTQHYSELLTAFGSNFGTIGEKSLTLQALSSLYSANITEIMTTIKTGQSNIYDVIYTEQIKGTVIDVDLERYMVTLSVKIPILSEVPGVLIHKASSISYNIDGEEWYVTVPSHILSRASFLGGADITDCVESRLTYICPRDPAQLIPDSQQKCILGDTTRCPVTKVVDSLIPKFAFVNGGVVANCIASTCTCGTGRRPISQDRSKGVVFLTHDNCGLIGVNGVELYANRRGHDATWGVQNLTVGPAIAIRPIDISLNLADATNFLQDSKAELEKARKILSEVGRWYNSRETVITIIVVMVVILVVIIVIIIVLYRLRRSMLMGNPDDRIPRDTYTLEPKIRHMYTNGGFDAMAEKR
# T3: SN-F (Sendai virus, UniProt P04855)
# T3 sequence (P04855 117-565 limits assumed): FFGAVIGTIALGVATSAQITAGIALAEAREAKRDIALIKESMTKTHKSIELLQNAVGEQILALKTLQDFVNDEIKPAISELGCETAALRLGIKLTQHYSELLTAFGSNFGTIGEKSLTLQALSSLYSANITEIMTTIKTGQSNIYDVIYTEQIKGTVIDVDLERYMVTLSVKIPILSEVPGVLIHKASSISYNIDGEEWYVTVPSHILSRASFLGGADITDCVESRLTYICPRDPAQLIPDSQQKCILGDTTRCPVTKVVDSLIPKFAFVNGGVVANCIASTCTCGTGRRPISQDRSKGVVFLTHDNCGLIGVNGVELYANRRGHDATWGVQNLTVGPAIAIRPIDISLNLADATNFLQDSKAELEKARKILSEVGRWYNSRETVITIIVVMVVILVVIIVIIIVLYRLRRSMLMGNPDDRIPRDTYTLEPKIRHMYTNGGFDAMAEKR
# T3 sequence (P04855 26-116 partner limits assumed): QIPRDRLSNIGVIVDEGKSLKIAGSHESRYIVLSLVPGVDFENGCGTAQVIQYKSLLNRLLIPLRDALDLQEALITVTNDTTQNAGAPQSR
# Key:
# PI3F + PI3HN = PI3F + PI3HN (Human parainfluenza 3 virus, UniProt P06828)
# PI3 virus [1] = assay type: cell-based, human parainfluenza type 3 virus; details: for syncytium formation / inhibition of cell fusion in PI3 infected HeLa-T4 cells (in words): incubated with peptide, concentration not given; for inhibition of PI3 virus-induced cell fusion: 24 h post infection
# PI3 virus [2] = assay: Inhibition of plaque formation on Vero cells (viral entry), PI3; assay type: cell-based, human parainfluenza type 3 virus; details: 100 μM peptide with virus 1 h at 37° C.; 10^5 dilution of the PI3 virus stock; overlay without peptide
# Experimental: Inhibition of plaque formation. A series of 2-fold dilutions of F peptides together with appropriately diluted PI2 or PI3 virus were added to monolayers of Vero cells. After 1 h incubation at 37° C., the inoculum was removed and overlaid with 2% white agar mixed at 1:1 ratio with 2XDMEM containing 2% FBS. Three days after overlying, red agar mixed at a 1:1 ratio with 2XDMEM containing 2% FBS was overlaid to stain the cells. Plaque numbers were counted one day after neutral red staining and recorded. The Reed-Muench method of estimating 50% endpoint [Welkos, S. et al., (1994) Methods in Enzymology. 235:29-39] was used to calculate the F peptide 50% effective concentration (EC50) value.
# F peptides inhibit viral spread. To determine whether the F peptide interferes with the viral entry process, a plaque assay was performed by inoculating cells with virus and peptide together at 37° C. for 1 h, and then overlaying with agar without the addition of peptide. At 10^4 dilution of the PI2 virus stock, 80 μM of the 2F1B34 peptide (SEQ ID NO:21) caused an 80% reduction in number of plaques. Similarly, at 10^5 dilution of the PI3 virus stock, 100 μM of the 3F1B35 peptide (SEQ ID NO:23) caused a 70% reduction in number of plaques. Furthermore, the reduction in the number of viral plaques was correlated with increasing concentration of peptide incubated with the virus. […]
# PI2 virus [3] = assay type: cell-based, parainfluenza virus type 2
# PI2 virus [4] = assay: Inhibition of virus production (released virus titer) in HeLa-T4 cells, PI2; assay type: cell-based, parainfluenza virus type 2; details: compared with 2F1B34
# PI2F + PI2HN = target: T1, PI2F + PI2HN; assay type: cell-based, parainfluenza virus type 2
# HeLa-T4 cells = assay type: cell-based
# [5] = target: T2, SN-F, fusion glycoprotein of Sendai …; assay: cell-based or functional assay
# SN-F = target: T3, SN-F; assay type: cell-based
# guinea pig erythrocytes = assay type: cell-based
# [6] = target: PI3 F plus PI3 HN (viral glycoproteins of PI3 virus; HN:F) (parainfluenza type 3 (PI3) virus, UniProt P06828); assay: cell-based or functional assay
# [7] = target: PI2 F plus PI2 HN (viral glycoproteins of PI2 virus; HN:F) (parainfluenza type 2 (PI2) virus)
# [8] = target: PI2 F plus PI2 HN (viral glycoproteins of PI2 virus; HN:F) (parainfluenza type 2 (PI2) virus); remark: listed apart in the source
# [9] = target: PI2 F plus PI2 HN (viral glycoproteins of PI2 virus; HN:F) (parainfluenza type 2 (PI2) virus); remark: listed apart in the source
molecule,measurement,setting,value
3F1B24: 24 a.a. PI3F peptide corresponding to the heptad repeat B only (ELNKAKSDLEESKEWIRRSNQKLD),inhibition of cell fusion by vaccinia-expressed PI3 F and HN (in words),PI3F + PI3HN,only partially inhibited cell fusion
same,inhibition of PI3 cell fusion at high peptide concentration,PI3 virus [1],could only partially inhibit cell fusion
same,syncytium formation / inhibition of cell fusion in PI3 infected HeLa-T4 cells (in words),PI3 virus [1],dramatically decreased
same,inhibition of PI3 virus-induced cell fusion,PI3 virus [1]; peptide 200 μM or more,partially inhibited
3F1B35: 35 a.a. PI3F peptide from the beginning of the transmembrane domain to include the entire heptad repeat B (ELNKAKSDLEESKEWIRRSNQKLDSIGNWHQSSTT),inhibition of fusion by PI3 F plus PI3 HN,PI3F + PI3HN,can inhibit
same,syncytium formation / inhibition of cell fusion in PI3 infected HeLa-T4 cells (in words),PI3 virus [1],no syncytia were seen
same,inhibition of PI3 virus-induced cell fusion,PI3 virus [1]; peptide 100 μM,completely inhibited
same,"reduction in number of plaques, PI3",PI3 virus [2],70%
2F1B21: 21 a.a. PI2F peptide from the beginning of the transmembrane domain to a predicted glycosylation site in the heptad repeat B region (KSAEDWIADSNFFANQARTAK),inhibition of PI2 cell fusion at high peptide concentration,PI2 virus [3],could only partially inhibit cell fusion
same,syncytium formation / inhibition of cell fusion in PI2 infected HeLa-T4 cells (in words),"PI2 virus [3]; incubated with peptide, concentration not given",dramatically decreased
same,inhibition of PI2 virus-induced cell fusion,"PI2 virus [3]; peptide 200 μM or more, 24 h post infection, m.o.i. 0.1",cell fusion was reduced remarkably
same,"effect on multiple cycle growth, PI2 (in words)",PI2 virus [4],not as dramatic as
same,inhibition of cell fusion by vaccinia-expressed PI2 F and HN (in words),PI2F + PI2HN,only partially inhibited cell fusion
SN(80-140)d chimeric HN protein (other) MEYWKHTNHGKDAGNELETSMATHGNKITNKITYILWTIILVLLSIVFIIVLINSIKSEKAHESLLQDVNNEFMSREVKESLTSLIRQEVIARAVNIQSSVQTGIPVLLNKNSRDVIQMIDKSCSRQELTQHCESRITHDVGIKPLNPDDFWRCTSGLPSLMKTPKIRLMPGPGLLAMPTTVDGCVRTPSLVINDLIYAYTSNLITRGCQDIGKSYQVLQIGIITVNSDLVPDLNPRISHTFNINDNRKSCSLALLNTDVYQLCSTPKVDERSDYASSGIEDIVLDIVNHDGSISTTRFKNNNISFDQPYAALYPSVGPGIYYKGKIIFLGYGGLEHPINENAICNTTGCPGKTQRDCNQASHSPWFSDRRMVNSIIVVDKGLNSIPKLKVWTISMRQNYWGSEGRLLLLGNKIYIYTRSTSWHSKLQLGIIDITDYSDIRIKWTWHNVLSRPGNNECPWGHSCPDGCITGVYTDAYPLNPTGSIVSSVILDSQKSRVNPVITYSTSTERVNELAIRNKTLSAGYTTTSCITHYNKGYCFHIVEINHKSLDTFQPMLFKTEIPKSCS,Cell surface expression (%),HeLa-T4 cells,72.0%
same,"Fusion activity (%), β-galactosidase production in the fusion dependent reporter gene activation assay",[5],6.72 % of SN-HN wt with SN-F
same,Relative fusion promoting activity b/a,SN-F,0.09
same,"fusion promoting activity, percentage of wild type SN-HN",SN-F,6.7%
same,HAD activity as percentage of wild type SN-HN hemadsorption,guinea pig erythrocytes,30.5%
same,hemadsorption observed under the microscope,guinea pig erythrocytes,lower activities
SN(59-140)d chimeric HN protein (other) MEYWKHTNHGKDAGNELETSMATHGNKITNKITYILWTIILVLLSIVFIIVLISARQGYSMKEYSMTVEALNMSSREVKESLTSLIRQEVIARAVNIQSSVQTGIPVLLNKNSRDVIQMIDKSCSRQELTQHCESRITHDVGIKPLNPDDFWRCTSGLPSLMKTPKIRLMPGPGLLAMPTTVDGCVRTPSLVINDLIYAYTSNLITRGCQDIGKSYQVLQIGIITVNSDLVPDLNPRISHTFNINDNRKSCSLALLNTDVYQLCSTPKVDERSDYASSGIEDIVLDIVNHDGSISTTRFKNNNISFDQPYAALYPSVGPGIYYKGKIIFLGYGGLEHPINENAICNTTGCPGKTQRDCNQASHSPWFSDRRMVNSIIVVDKGLNSIPKLKVWTISMRQNYWGSEGRLLLLGNKIYIYTRSTSWHSKLQLGIIDITDYSDIRIKWTWHNVLSRPGNNECPWGHSCPDGCITGVYTDAYPLNPTGSIVSSVILDSQKSRVNPVITYSTSTERVNELAIRNKTLSAGYTTTSCITHYNKGYCFHIVEINHKSLDTFQPMLFKTEIPKSCS,Cell surface expression (%),HeLa-T4 cells,61.6%
same,"Fusion activity (%), β-galactosidase production in the fusion dependent reporter gene activation assay",[5],31.3 % of SN-HN wt with SN-F
same,Relative fusion promoting activity b/a,SN-F,0.51
same,HAD activity as percentage of wild type SN-HN hemadsorption,guinea pig erythrocytes,comparable or higher HAD activity than that of SN-HN
same,hemadsorption observed under the microscope,guinea pig erythrocytes,high levels of hemadsorption
Ac-ELNKAKSDLEESKEWIRRSNQKLDSIGNWHQSSTT-NH2 [peptide 3F1B35],"50% effective concentration (EC50) of inhibition of virus infection efficiency, plaque assay, Reed-Muench method",[6],81.6 µM
same,viral titer in the culture supernatant post infection,[6],10 fold reduction
Ac-DLSNQINSINKSLKSAEDWIADSNFFANQARTAK-NH2 [peptide 2F1B34],"50% effective concentration (EC50) of inhibition of virus infection efficiency, plaque assay, Reed-Muench method",[7],53.8 µM
same,viral titer in the culture supernatant 48 h post infection (plaque assay) (fold decrease),[8],15
same,"plaque size (peptide in the agar overlay after virus absorption, Vero cells)",[9],1.5 mm
